{"source": "paper PMC4174438", "target": "RtcA (RNA 3'-phosphate cyclase) (Pyrococcus horikoshii, UniProt O59198 1-341)", "sequence (O59198 whole entry)": "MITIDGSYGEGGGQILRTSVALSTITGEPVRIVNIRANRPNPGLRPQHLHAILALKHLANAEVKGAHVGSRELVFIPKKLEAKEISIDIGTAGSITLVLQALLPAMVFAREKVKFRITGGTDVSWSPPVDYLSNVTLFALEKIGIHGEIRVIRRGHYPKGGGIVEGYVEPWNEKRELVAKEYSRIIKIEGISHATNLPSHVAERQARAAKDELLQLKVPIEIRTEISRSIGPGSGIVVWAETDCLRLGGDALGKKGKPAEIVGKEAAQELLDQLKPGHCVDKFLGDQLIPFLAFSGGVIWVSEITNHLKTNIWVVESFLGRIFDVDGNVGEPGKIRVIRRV", "assay": "EMSA", "data": [{"binder": "CGUUUU (ssRNA, 3'-phosphate)", "note": "[U6 6-mer RNA 3'-p]", "values": [{"measurement": "binding result", "value": "binds"}]}]}
